Measurements taken from patent US20240076390A1.

How the values were obtained:
[1] = target: Recombinant Human Axl Protein Axl-tag 5 (human) (UniProt P30530); assay: competition ELISA on immobilized Axl-tag 5; unlabeled antibody 50 ug/mL; competitor Biot-M77-297b81.1.1 1 ug/mL
[2] = target: Recombinant Human Axl Protein Axl-tag 5 (human) (UniProt P30530); assay: competition ELISA on immobilized Axl-tag 5; unlabeled antibody 50 ug/mL; competitor Biot-M77-297b81.1.1 1 ug/mL (signal is of the biotinylated antibody)
[3] = target: Recombinant Human Axl Protein Axl-tag 5 (human) (UniProt P30530); assay: competition ELISA on immobilized Axl-tag 5; unlabeled antibody 50 ug/mL; competitor Biot-v77-2a37.1 1 ug/mL (signal is of the biotinylated antibody)
[4] = target: Recombinant Human Axl Protein Axl-tag 5 (human) (UniProt P30530); assay: competition ELISA on immobilized Axl-tag 5; unlabeled antibody 50 ug/mL; competitor Biot-v77-2a37.1 1 ug/mL

UniProt P30530, sequence (P30530 26-451): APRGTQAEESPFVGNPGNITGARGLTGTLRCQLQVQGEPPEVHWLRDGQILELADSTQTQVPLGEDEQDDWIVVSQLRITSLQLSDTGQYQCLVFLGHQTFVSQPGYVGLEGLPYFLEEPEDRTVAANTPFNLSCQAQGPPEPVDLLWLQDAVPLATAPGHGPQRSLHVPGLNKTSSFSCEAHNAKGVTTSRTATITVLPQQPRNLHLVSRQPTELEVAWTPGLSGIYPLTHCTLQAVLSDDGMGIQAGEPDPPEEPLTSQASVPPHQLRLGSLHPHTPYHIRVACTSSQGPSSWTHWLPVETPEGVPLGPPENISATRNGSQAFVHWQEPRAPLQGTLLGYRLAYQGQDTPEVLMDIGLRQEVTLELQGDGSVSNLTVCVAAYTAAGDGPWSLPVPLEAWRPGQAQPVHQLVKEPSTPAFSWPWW

Substance: AXL(C89E7) rabbit anti-human Axl monoclonal antibody (Cell Signaling)
- % competition [1]: 1.5%
- OD (650 nm) [2]: 2.13 OD (650 nm)
- OD (650 nm) [3]: 1.81 OD (650 nm)
- % competition [4]: 3.3%
